Legend:
anti-lysozyme IgG = assay: Immunization of mice with QA-21-lysozyme conjugate (total anti-lysozyme IgG); format: in vivo, C57bl/6 mice; details: days 0 and 14 intradermal; bled day 21
Experimental: The QA-21-lysozyme from Example 18 conjugate was used to immunize mice (C57bl/6), with and without added QA-21 as adjuvant. Ten nice (9 weeks of age at the beginning of the immunization) were immunized per group. Immunizations were made intradermally at day 0 and day 14 with a total volume of 0.2 ml (PBS buffer, pH 7). The vaccines contained the following dosages of antigen and adjuvant:
The mice were bled on day 21 and the anti-lysozyme IgG titers were determined. Microtitre plates (in the alternative, Co-bind® plates from Micromembranes may be used) were incubated at 4° C. overnight with 10 μg/ml of lysozyme in about 100 μl of PBS. The plates were then washed two times with PBS and blocked for one hour with 150 μl/well of 10% normal goat serum at room temperature. The plates were then washed two times with 0.05% Tween-20 in water.
The mice sera were incubated with the lysozyme coated plates as follows. The individual serum samples (10μl) diluted with 10% normal goat serum in PBS to make 100 μl, as well as serial dilutions thereof (1:10) were added to the wells and incubated for 1 hour at room temperature. The wells were then washed four times with 0.05% Tween-20. […] The conjugate was then detected by tetramethylbenzidine substrate (Bos, E.S. et al., J. Immunoassay 2:187 (1981)). After incubation, the OD450 was read. […]

[1] = tested on: anti-lysozyme antibodies (IgG1, IgG2B, IgG2A, IgM, IgG3); assay: Isotyping of anti-lysozyme antibodies; format: in vivo, C57bl/6 mice; details: FIG. 22
Experimental: Next, the anti-lysozyme antibodies produced by each group of mice were isotyped. Microtitre plates were incubated at 4° C. overnight with 10 μg/ml of lysozyme in about 100 μl of PBS. The plates were then washed two times with PBS and blocked for one hour with 150 μl/well of 10% normal goat serum in PBS at room temperature. The plates were then washed two times with 0.05% Tween-20 in water.
The mice sera were incubated with the lysozyme coated plates as follows. The serum samples were tested in separate lanes for IgG1, IgG2B, IgG2A, IgM and IgG3. The individual serum samples (10 μl) were diluted with 10% normal goat serum in PBS to make 100 μl, and serial dilutions thereof (1:10) were added to the wells and incubated for 1 hour at room temperature. The wells were then washed four times with 0.05% Tween-20. […] The conjugates were then detected by adding 100 μl per well of 1 mg/ml p-nitrophenylphosphate in 0.1M borate, pH 9.0. After incubation for 6 and 24 hours at room temperature, tile OD410 was read.

Substance | Anti-lysozyme antibody response (immunogenicity) (anti-lysozyme IgG) | Antibody isotypes produced [1]
lysozyme: a poorly immunogenic, very hydrophilic protein | poorly immunogenic | only IgM antibodies were produced
lysozyme-QA-21 conjugate: QA-21 coupled via glucuronic acid to lysozyme, 1:1 molar ratio | higher antibody titer than either of the groups receiving free QA-21 | –

From patent publication US5583112A, “Saponin-antigen conjugates and the use thereof” (priority 1992, dated 1996)
